Results on one molecule are retold here after US20220174981A1, “PROLINE TOLERANT TRIPEPTIDYL PEPTIDASES AND USES THEREOF” (DuPont Nutrition Biosciences APS, priority 2014, published 2022).

Residue numbers refer to the chain shown, from its start.

One test has as its system sodium caseinate. As to the kind of experiment: 5% sodium caseinate hydrolysis with endopeptidase, TRI083 and PepN, serine equivalents. In kind it is biochemical. The following applies: doubling of the PepN activity from 786 to 1572 nkat/mL.
Test [1] deals with whey protein isolate (WPI). As to the kind of experiment: 15% WPI hydrolysis at pH 6, 50° C. with endopeptidases, TRI079 and PepN. In kind it is biochemical. The following applies: 24 h. As to the method: For WPI hydrolysis, Lacprodan-9224 (Arla Food Ingredients, Denmark) was employed, a 15% (w/w) WPI suspension was prepared in H2Od and adjusted to pH 6 with sodium hydroxide. To prevent microbial growth, 0.0285% (w/w) NaN3 was added. Subsequently, 0.5% (w/w on protein substrate) Food Pro® Alkaline Protease and 0.5% (w/w on protein substrate) Food Pro® PNL was added and a volume of 200 μl of the WPI suspension was transferred into each of the 96 wells of a microtiter plate (MTP; VWR, Denmark). Following this, 5 μl of the proline tolerant tripeptidyl peptidase TRI079 containing either 0 or 2188 nkat/mL and 5 ul of PepN (described in EXAMPLE 10) containing either 0, 197 or 393 nkat/mL were added to the particular wells of the MTP. Then, the MTP was sealed and placed in an incubator at 50° C. (iEMS incubator/shaker HT, Thermo Scientific, Denmark).
After 24 h of incubation and shaking at 400 rpm, the hydrolysis was stopped by addition of 20 μl of 2 M trichloroacetic acid (TCA; Sigma-Aldrich, Denmark), except for the reference (0 h) to which the TCA was added prior to endo- and exopeptidase addition. […] The measured absorptions at 340 nm in a MTP reader (VersaMax, Molecular Devices, Denmark) were transformed into serine equivalents employing a serine calibration curve (0-2 mM).

The test system of a further test is H-Ala-Ala-Ala-OH. As to the kind of experiment: Pre-hydrolysis of H-Ala-Ala-Ala-OH by PepN, gas chromatography. Format: biochemical. The following applies: 24 h, 40° C., pH 4.0. As to the method:
The inhibition experiments were set up as described in Example 14. Furthermore, 1 mg/mL H-Ala-Ala-Ala-OH (Bachem, Switzerland) was subjected to general aminopeptidase (PepN) hydrolysis for 24 h at 40° C. in 12.5 times diluted McIlvaine buffer (pH 4.0). For this, […] H-Ala-Ala-Ala-OH was dissolved in 8 mL 10 times diluted McIlvaine buffer (pH 4.0) and filled up to 10 mL with purified PepN (1,572 nkat/mL [pH 6.5]). After 24 h of hydrolysis, the PepN hydrolysis was terminated by heat inactivation of the PepN (90° C.; 10 min). The degree of pre-hydrolysis of H-Ala-Ala-Ala-OH was determined by gas chromatography (Husek, 1991; FEBS-Letters 280, 354-356). About 0.18 mg/mL alanine was measured, which corresponds to about 54% hydrolyses of the initially applied H-Ala-Ala-Ala-OH.

The conditions of test [2]: general aminopeptidase (Pep N) of the named origin; cited from earlier work.
A further test concerns azocasein. As to the kind of experiment: Azocasein assay for endoprotease activity. Format: biochemical. The following applies: PepN applied in WPI hydrolysis. As to the method:
(§1) A modified version of the endoprotease assay described by Iversen and Jørgensen, 1995 (Biotechnology Techniques 9, 573-576) is used. An enzyme sample of 50 μl is added to 250 μl of azocasein (0.25% w/v; from Sigma) in 4 times diluted McIlvaine buffer, pH 5 and incubated for 15 min at 40° C. with shaking (800 rpm). The reaction is terminated by adding 50 μl of 2 M trichloroacetic acid (TCA) (from Sigma Aldrich, Denmark) and centrifugation for 5 min at 20,000 g. To a 195 μl sample of the supernatant 65 μl of 1 M NaOH is added and absorbance at 450 nm is measured. One unit of endoprotease activity is defined as the amount which yields an increase in absorbance of 0.1 in 15 min at 40° C. at 450 nm.
as §1, with “Jorgensen,” for “Jørgensen,”, “1995” for “1995 (Biotechnology Techniques 9, 573-576)”, “TCA” for “trichloroacetic acid (TCA) (from Sigma Aldrich, Denmark)”, “C.” for “C. at 450 nm.”
Endopeptidase side-activity was measured with the azocasein as described in Example 2.

The target in a further test is T1, H-Ala-Pro-pNA (Lactobacillus helveticus, UniProt Q10730).
T1 construct: His-tag; made in house; host or cells: E. coli
T1 sequence (Q10730 1-844 F39I/L44F/S342A/S372G/S496N/T525I/H527L): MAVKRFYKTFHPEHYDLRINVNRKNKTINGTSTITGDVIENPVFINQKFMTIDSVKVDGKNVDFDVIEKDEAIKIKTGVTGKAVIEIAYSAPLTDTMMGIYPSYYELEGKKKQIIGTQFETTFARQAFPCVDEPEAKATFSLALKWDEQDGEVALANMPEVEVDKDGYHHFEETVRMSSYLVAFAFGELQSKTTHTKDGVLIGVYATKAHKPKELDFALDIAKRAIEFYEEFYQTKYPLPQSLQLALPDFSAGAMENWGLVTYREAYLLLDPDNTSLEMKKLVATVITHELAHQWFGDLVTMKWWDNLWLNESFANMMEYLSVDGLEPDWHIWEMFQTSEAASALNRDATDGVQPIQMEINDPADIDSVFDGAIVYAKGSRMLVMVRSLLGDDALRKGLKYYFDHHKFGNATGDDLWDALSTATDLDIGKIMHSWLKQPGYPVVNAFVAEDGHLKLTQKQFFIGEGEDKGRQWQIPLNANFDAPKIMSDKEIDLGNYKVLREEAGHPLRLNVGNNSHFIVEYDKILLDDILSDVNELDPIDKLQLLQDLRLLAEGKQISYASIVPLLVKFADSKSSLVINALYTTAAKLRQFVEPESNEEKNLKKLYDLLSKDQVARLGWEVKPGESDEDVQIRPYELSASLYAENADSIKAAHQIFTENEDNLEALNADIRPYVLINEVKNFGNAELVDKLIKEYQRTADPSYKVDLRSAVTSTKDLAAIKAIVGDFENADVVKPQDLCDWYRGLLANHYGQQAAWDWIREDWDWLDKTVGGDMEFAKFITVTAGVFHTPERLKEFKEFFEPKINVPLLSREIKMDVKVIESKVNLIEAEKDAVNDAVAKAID
As to the kind of experiment: X-prolyl-dipeptidyl (PepX) side-activity. In kind it is biochemical. The following applies: PepN applied in WPI hydrolysis.

B1: PepN: recombinantly in E. coli expressed and His-tag purified general aminopeptidase (PepN) from Lactobacillus helveticus ATCC 12046 (protein, UniProt Q10730 1-844, looked up)
Aminopeptidase N: T1 sequence (Q10730 1-844 F39I/L44F/S342A/S372G/S496N/T525I/H527L) with I39F, F44L, A342S, G372S, N496S, I525T, L527H
modifications: His-tag
As to B1, in the test with sodium caseinate, the “increase of serine equivalents” value is reported as 10 mM. Moreover, the “DH (in %) of WPI hydrolysate” value in test [1] (PepN 197, TRI 079 0 nkat/mL) turned out to be 18.2%. In test [1] (PepN 393, TRI 079 0 nkat/mL), the “DH (in %) of WPI hydrolysate” value is recorded as 18.8%. Besides, the alanine measured entry with H-Ala-Ala-Ala-OH (1 mg/mL H-Ala-Ala-Ala-OH) is “About 0.18 mg/mL”. Besides, in the test with H-Ala-Ala-Ala-OH, the “hydrolyses of the initially applied H-Ala-Ala-Ala-OH” value is recorded as “about 54%”. In addition, in test [2], the “Substrate Specificity” value is “Ala, Lys, Arg, Leu, Phe, Val, Ile, and Pro”; the pH-optimum was 6.5; the temp.-range is on record as 10-50 C. Also, the endopeptidase side-activity result in the test on azocasein is reported as “free of endopeptidase”. Moreover, in the test with H-Ala-Pro-pNA, the “X-prolyl-dipeptidyl (PepX) side-activity” value is “free of”.
